According to the nanobody polyreactivity screen of Harvey et al. (2022):

Assay: yeast display, Sf9 membrane polyspecificity reagent, FACS + sequencing; frameworks hold sequencing errors
Outline: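 Nanobodies from a synthetic yeast display library (Saccharomyces cerevisiae BJ5465), induced 36–48 hours with galactose, were stained 1 hour at 4 °C with 10% biotinylated, detergent-solubilized Sf9 membrane reagent, enriched on streptavidin microbeads, then FACS-sorted. Anti-HA (expression) and streptavidin (reagent binding) fluorescence set low and high (top ~1%) gates. Polyreactivity labels come from the gate of origin. Genes were colony-PCR amplified, MiSeq 2 × 250 sequenced and filtered by CDR length.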

Row | Sequence | polyreactivity (PSR sort gate)
1 | QVQLVESGAGLVQAGGSLRLSCAPSGRTFWGKVMGWYRQAPGKERELVAAITGRVGSTRYADSVKGRFTISRDNAKNTVFLQMNSLKPEDTAVYYCNADDYELYDYWGQGTQVTVSS | low polyreactivity
2 | QVQLVESRGGLVQAGGSLRLSCAASGRIFGSYAMGWYRQAPGKERVLVAAISYSGGSTYYADSVKGRFTISRDNAKNTVYLQMNSLKPEDTAVYYSNVDRYYGYFSVRGGYWGQGTQVTVSS | low polyreactivity
3 | QVQLVESGGGLVQAGGSLRLSCAAYGYTFRYNAMGWYRQAPGKERELVATITRGGSTNYADSVKGRFTISRDNAKNTVYLQMNSLKPEDTAVYYCNKEAAPRGFVPSYYGRDYWGQGTQVTVSS | low polyreactivity
4 | QVQLVESGGGVVQAGGGLRLSCAASGRTFIGNAMGWYRQAPGKEREFVAYITLSGGSTYYADSVKGRFTISRDNATINVYLQMNSLKPEDRAVYYCADKRFFGYLGYNRGGSRYDYWGQGTQVTVSS | high polyreactivity
5 | QVQLVESGGGLVQAGGSLRLSCAASGRTFYSYAMGWYRQAPGKERELVAAMTSDGGTYYADSVKGRFTISRDNAKNTVYLQMNSLKPEDTAVYYCAAELYYWYYYWGQGTKVTVSS | low polyreactivity
6 | QVQLVESGGGLVQAGGSLRLSCAASGFIFARNAMGWYRQAPGKERELVAVISTRGRTYYADSVKGRFTISRDNAKNTVYLQMNSLKPEDTAVYYCNADKVIGYDYWGQGTQVTVSS | high polyreactivity
7 | QVQLVESGGGLVQAGGSLRLSCAASGSIFYSNVMGWYRQAPGKERELVASITNGGGTYYADSVKGRFTISRDNAKTTVYLQMNSLKPEDTAVYYCARRVYYWGQGTQVTVSS | high polyreactivity
8 | QVQLVESGGGLVQAGGSLRLSCAASGFTFGRYAMGWYRQAPGKEREFVAAITWSGGGTYYADSVKGRFTISRDNAKNTVYLQMNSLKPEDTAVYYCAADRRAYGGGYWGQRTQVTVSS | high polyreactivity
9 | QVQLVETGGGLVQAGGSLRLSCAASGLTSLGNAMGGYRQAPGKERELVAAITRTVTSTYYADSVKGRFTISRDTAKNTVYLQMNSLKPEDTAVYYCAADWWYGYSNYDYWGQGTEVTVSS | low polyreactivity
10 | QVQLVESGGGLVQAGGSLLLSCAASGRIFQFYAMGWYRQAPGKERELVAGITTSGGSTYYADSVKGRFTISRDTAKNTVYLQMNSLKPEDTAVYYCAKRYYSSQFSKFGYWGQGSQVTVSS | high polyreactivity
11 | QVQLVESGGGLVQSGGSLRLSCAASGITTRTYAMGWYRQAPGKDRELVAAISDSGDRTYYADSVKGRFTISRDNAKNTVYLQMNSLKPEDTAVYYCAVDAPGPRGEYWGQGTKVTVSS | low polyreactivity
12 | QVQLVESRGGLLQAGGSLRLSCAASGIIFGHYDMGWYRQAPGKEWELVAAITFTGDSTYYADSVKGRFTISRDNAKHTVYLQMNSLKPEDTAVYYCAAETPVPWGSWGYDYWGQGTQVTVSS | low polyreactivity
13 | QVQLVESGGGLVQAGGSLRLSCAASGRIFPWNTMGWYRQAPGKERELVAGINNGDRTYYADSVKGRFTISRDNAKNTVYLQMNSLKPEDTAVYYCAVDTWYFLFQYGYYQEGDYWGQGTQVTVSS | low polyreactivity
14 | QVQLVESGGVLVQAGGSLRLSCAASGFTFSLYAMGWYRQAPGKERELVASISRSGGSTYYADSVKGRFTISRDNAKNTVYLQMNSLKPEDTAVYSCAARWRPYKYDSWGQGTQVTVSS | high polyreactivity
15 | QVQLVESGGVLVQAGGSLRLSCAASGSIFYVNAMGWYRQAPGKERELVATITTDGSTNYADSVKGRFTISRDNAKNTVYLPMNSLKPEDTAVYYCAAERWLATPTVPWYLYNYWGQGTQVTVSS | low polyreactivity
16 | QVQLVESGGGLVQAGGSLRLSCAASGFTLPANGMGWYRQAPGKERQLVAAISFIAGSTYYADSVKGRFTISRDNAKNTVYLQMKSLKPEDTAVYYCATQFPPSTFYDYWGQGTQVTVSS | low polyreactivity
17 | QVQLVESGGGLVQAGGSLRLSCAASGSTFTLYVMGWYRQAPGKERELVAAITSSGDSTDYADSVKGRFTISRDNAKNTVYLQMNSLKPEDTAVYYCNVQPVYADHFTEFDYWGQGTQVTVSS | low polyreactivity
18 | QVQLVESGGRLVQAGGSLRLSCAASGFIFQYYTMGWYRQAPGKERELVAGISRSGGSTYYADSVKGRFTISRDNAKNTVYLQMNSLKPEDTAVYYCAAKIRTSDMGYWGQGTQVTVSS | high polyreactivity
19 | QVQLVESGGGLVQAGGSLRLSCAASGRIFGTYGMGWYRQAPGKERELVAAINWRGGSTYYADSVKGRFTISRDNAKNTVYLQMNSLKPEDTAVYYCNARLYRNRLGYWGQGTQVTVSS | high polyreactivity
20 | QVHLEESGGGLVQAGGSLRLRCAASGFTFGHYTMGWYRQAPGKERELVAAITWRGGTYYADSVKGRFTISRDNAKNTVYLQMNSLKPEDTAVYYCNARFGQTVKGTYGRYYYWGQGTQVTVSS | high polyreactivity
21 | QVQLVESAGGLVQAGGSLRLSCAASGFIFARYAMGWYRQAPGKERELVAAISSSGGITYYADSVKGRFTISRDNAKNTVYFQMNSLKPEDTAVYYCNAESYYFYWPVYSYDYWGQGTQVTVSS | low polyreactivity

Row | Sequence | polyreactivity (PSR sort gate)
22 | QVQLVESGGGLVQAGGSLRLSCAASGFIFVQNTMGWYRQAPGKERELVAAISRGTGRTYYADSVKGRFTISRDNAKNTVYLQMNSLKPDDTAVYYCNVVYPQRYRSREDDYWGQGTQVTVSS | high polyreactivity
23 | QVQLVESGGGLVQAGGSLRLSCAASGSIFLFNAMGWYRQAPGKERELVAAINRDDSTYYADSVKGRFTISRDNAKNTVYLQMNSLKPEDTAVYYCAARQRLSWKTEYYWGQGTQVTVSS | low polyreactivity
24 | QVQLVESGGGLVQAGGSLRLSCAASGRIFQHNTMGWYRQAPGKEREFVAAIRRSGGSTYYADSVKGRFTISRDNAKNTVYLQMNSLKPEDTAVYYCAARDYPTGTRRWGGGDSWGQGTQVTVSS | low polyreactivity
25 | QDQLVESGGGLVQAGGSLRLSGDASGSTFSKYVMGWYRQAPGKERELVAAISGGDRTYYADSVKGRFTISRDNAKNTVYLQMNSLKPEDTAVYFCAAEVLKTRWSYDYWGQGTQVTVSS | high polyreactivity
26 | QVQLVESGGGLVQAGGSLRLSCAASGLTFQTNAMGWYRQAPGKERELVAAISRRGSSTYYADSVKGRFTISRDNAKNTVYLQMNSLKPEDTAVYYCNAVRYLFIYPRYDYWGQGTQVTVAS | high polyreactivity
27 | QVQLVESGGGLVQAGGSLRLSCAASGITFVFYAMGRYRPAPGKERELVAAISSSGGSTYYADSVKGRFTISRDNAKNTVYLQMNSLKAEDTAVYYCNAKVFSYQGAVRYDYWGQGTQVTVSS | high polyreactivity
28 | QVQLVESGGGLVQAGGSLRLSCAASGSNFHQYAMGWYRQAPGKERELVAGINWSGGSTYYADSVKGRFTISRDNAKNTVYLQMNSLKPEDTAVYYCAKRYQLARAAYTGGYWGQGTQVTVSS | high polyreactivity
29 | QVQLVESCGGLVQAGGSLRLSCAASGFNIYRNAMGWYRKAPGKERELVAAISTSVGSTHYADSVKGRFTISRDNAMNTVYLQMYSLKPEDTAVYYCAKRRSIRDEFGYWGQGTQVTVSS | high polyreactivity
30 | QVQLVESGGGLVQAGGSLRLSCAASGRTFYWNAMGWYRQAPGKERELVAAISDGGGSTYYADSVKGRFTISRDNAKNTVYLHMNSLKPEDTAVYYCNTPDNQDKPYPGYDYWGQGTQVTVSS | low polyreactivity
31 | QVQLVESGGGLVQAGGSLRLSCAASGSTSYIYAMGWYRQAPGKERELVAAISKSGGRTYYADSVKGRFTISRDNAKNTVYLQMNSLKPEDTAVYYCAAVPGRTAEDYGEDYWGQGTQVTVSS | high polyreactivity
32 | QVQLVESGGGLVQAGGSLRLSCAASGRIFTANVMGWYRQAPGKERELVAAIDYSGGSTYYADSVKGRFTISRDNAKNTVYLQMNSLKPEDTAVYYCNRDDYADYYHLEYDYWGQGTQVTVSS | low polyreactivity
33 | QVQLVESGGGLVQAGGSLRLSCAASGLTFVYYTRGWYRQAPGKERELVATITFTGGNTYYADSVKGRFTISRDNAKNTVYLQMNCLKPEDTAVYYCAKDSGPYKAEYDYGGQGTQVTVSS | low polyreactivity
34 | QVQLGESGGGLVQAGGSLRLSCAASGRIFAYYTMGWYRQAPGKERELVAAITSGGSTYYADSVKGRFTISRDYAKNTVYLQMNSLKPEATAVYYCAAGWYTPVYLYYYWGQGTQVTVSS | high polyreactivity
35 | QDQLVESGGGLVQAGGSLRLSCAASGSIFSYYAMGWYRQAPGKERELVAAIRRGGSTYYADSVKGRFTISRDNEKNSVYLQMNSLKPEDNAVYYCAASLGWRFYYWGQGTQVTVSS | high polyreactivity
36 | QVQLVESGGGLVQAGGSLRLSCAASAFTFPGNAMGWYRHATGKERQLVAAISGTGGSTYYADSVKGRFTISRDNAKNTVYLQMNSLKPEDTAVYYCAARLGGRRRFGYWGQGTQVTVSS | high polyreactivity
37 | QVQLVESGGGLVQAGGSLRLSCAASGSIVSVYAMGWSRQAPGKEREWVAAISGRGGRTYYADSVKGRFTISRDNAKNTVYLQMNSLKPVDTAVYYCAARYPRYRYVEYGYNYWGQGTQVTVSS | high polyreactivity
38 | QVQLVESGGGLVQAGGSLRLSCAASGLIFWGYAMGWYRQAPGKERELVAAISSSGGSTYYADSVKGRFTISRDNAKNTVYLQMNSLKPEDTAVYYCNADYTYYPGYDYWGQGTQVTVSS | low polyreactivity
39 | QVQLVESGGGLVQAGGSLRLSCAASGITFKPNAMGWYRQAPGKERELVAALDTGGSTNYADSVKGRFTISRDNEKNTVYLQMNSLKPEDTEVYYCAAPYQDRDLHVSYSTYEGGYWGQGTQVTVSS | low polyreactivity
40 | QVQLVESGGGLVQAGGSRRLSCAASGSIFVKYAMGWYRQAPGKERELVAAKSQSGVRTYYADSVKGRFTISRDNAKNTVYLQMNSLTPEDTAVYYCAAYSGYYYWGQGTQVTVSS | high polyreactivity
41 | QVQLVETGGGLVQAGGSLRLSCAASGITFKNYAMGWYRQANGKERELVATINRGSRTNYADSVKGRFTISRDNAKNTVYLQMNSLKPEDTAVYYCNVDQANYRWVPWEMDYWGQGSQVTVSS | low polyreactivity
